Test results published in article PMC6405930, “Conservation of the Amyloid Interactome Across Diverse Fibrillar Structures” (Scientific Reports, 2019).

Legend:
[1] = target: T1, glucagon fibrils (Homo sapiens, UniProt P01275); test: Fibril incubation with CSF, quantitative MS/MS of bound proteins; type: binding; conditions: 4:1 w/w CSF protein:fibril
T1 construct: fibrils of the peptide hormone glucagon

[2] = tested on: T2, FAS4-AD aggregates; test: as above; type: binding, human; set-up: key to Identification status of CSF protein bound: FAS4-AD: *: Identified, but not quantified; —: Not identified in any of the samples; conditions: symbol cells
T2 construct: aggregates of a mutated version of the FAS1-4 domain of TGFBIp

[3] = target: T3, C-36 fibrils (Homo sapiens, UniProt P01009); test: as above; type: binding; conditions: 4:1 w/w CSF protein:fibril
T3 construct: the 36 residue C-terminal fragment of α1-antitrypsin (C-36)
T3 sequence (P01009 383-418 limits assumed): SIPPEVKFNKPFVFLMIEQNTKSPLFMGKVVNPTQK

[4] = target: T4, αSN fibrils (Homo sapiens, UniProt P37840); test: as above; type: binding; set-up: key to Identification status of CSF protein bound: αSN: *: Identified, but not quantified; —: Not identified in any of the samples; conditions: symbol cells
Experimental: (§1) Plasma and CSF solutions were centrifuged (40,000 g, 20 min) to remove any aggregates. The protein concentration was determined using 280 nm absorbance assuming 1 Abs = 1 mg/mL. […] Control samples (without fibril material) were prepared similarly. All samples were incubated at room temperature for one hour under gentle agitation. Fibrils and fibril-bound proteins were pelleted by centrifugation at 17,000 g for 30 minutes. The supernatant (175 μL) was removed and the aggregate was re-suspended in 175 μL PBS and pelleted again before further preparation for gel analysis and spin-filter assisted digest for quantitative MS/MS.
(§2) The fibril-protein pellets were transferred to spin-filters (0.22 μm), washed twice in PBS (100 μL) and once in 1 M NaCl (100 μL). The fibrils and fibril-bound proteins were dissolved by one-hour incubation in 100 μL 6 M guanidinium chloride followed by elution from the spin-filter. The eluted proteins were loaded onto a 3 kDa MWCO filter unit for filter-assisted unfolding, reduction, alkylation, and trypsin digestion. In brief, samples were washed twice in 8 M urea, once in 8 M urea with 50 mM DTT, once in 8 M urea with 50 mM iodoaceteamide, and twice in 8 M Urea. The filter units were dried by centrifugation (14,000 g in 30 minutes) after every addition. Trypsin digestion was carried out with 0.25 μg sequencing grade trypsin from Sigma Aldrich in 50 mM ammonium bicarbonate overnight at 37 °C. The tryptic peptides were collected by centrifugation, acidified with TFA (0.1%) and micro-purified using POROS R2 column material (Applied Biosystems) packed in P200 pipette tips (Sarstedt).
(§3) LC-MS/MS analyses were performed on an EASY-nLC II system (Thermo Fisher Scientific) connected to a TripleTOF 5600+ mass spectrometer (Sciex) equipped with a NanoSpray III source (Sciex) and operated under Analyst TF 1.6.0 control.
(§4) The micro-purified tryptic peptides were dissolved in 0.1% formic acid, injected and trapped on an in-house packed trap column (2 cm × 100 μm I.D) with RP ReproSil-Pur C18-AQ 3 μm resin (Dr. Maisch GmbH). Peptides were eluted from the trap column and separated on a 15 cm analytical column (75 μm i.d.) packed in-house in a pulled emitter with RP ReproSil-Pur C18-AQ 3 μm resin (Dr. Maisch GmbH). Elution from the analytical column was performed with a linear gradient from 5% to 35% phase B (90% acetonitrile with 0.1% formic acid) over 20 min for protein identification and 50 min for quantitative analysis, respectively.
(§5) All samples were analysed three times, yielding nine MS/MS experiments for each fibril for both plasma and CSF. For the area-based extracted ion chromatogram (XIC) quantification, the acquisition method was set up as an information-dependent acquisition (IDA) experiment collecting up to 25 MS/MS spectra in each 1.6 sec cycle using an exclusion window of 6 sec.
(§6) XIC quantification was based on the average ion intensity of the three most abundant peptides for each protein. Only proteins quantified in at least four out of nine MS/MS experiments per fibril were included in the quantification. The total ion scores were visualized after grouping the proteins according to function (Figure S11).
(§7) For each MS/MS experiment, the ion intensities of the individual proteins were normalized to the total ion intensity of that MS/MS experiment to achieve a relative protein composition. The contribution of each protein was averaged over all nine MS/MS experiments (Tables 1 and 2).

[5] = tested on: T5, Ab1 fibrils; test: as above; type: binding, human; set-up: key to Identification status of CSF protein bound: Ab1: *: Identified, but not quantified; —: Not identified in any of the samples; conditions: symbol cells
T5 construct: Synthetic amyloid β peptide 1–40 was purchased from Caslo Aps (Lyngby, Denmark); purchased Caslo Aps (Lyngby, Denmark); host or cells: synthetic peptide

[6] = tested on: T6, Ab2 fibrils; test: Fibril incubation with plasma, quantitative MS/MS of bound proteins; type: binding, human; conditions: 50:1 w/w plasma protein:fibril
T6 construct: Two structurally distinct fibrils of the Aβ(1–40) peptide associated with AD
Experimental: as §1, §2, §3, §4, §5, §6, §7

[7] = tested on: T6, Ab2 fibrils; test: Fibril incubation with CSF, quantitative MS/MS of bound proteins; type: binding, human; set-up: key to Identification status of CSF protein bound: Ab2: *: Identified, but not quantified; —: Not identified in any of the samples; conditions: symbol cells
[8] = target: T4, αSN fibrils; test: Fibril incubation with plasma, quantitative MS/MS of bound proteins; type: binding; set-up: key to Identification status of plasma protein bound: αSN: *: Identified, but not quantified; —: Not identified in any of the samples; conditions: for Identification status of plasma protein bound: αSN: symbol cells
Experimental: as §1, §2, §3, §4, §5, §6, §7

[9] = target: T1, glucagon fibrils; test: as above; type: binding; conditions: 50:1 w/w plasma protein:fibril
Experimental: as §1, §2, §3, §4, §5, §6, §7

[10] = target: T3, C-36 fibrils; test: as above; type: binding; conditions: 50:1 w/w plasma protein:fibril
Experimental: as §1, §2, §3, §4, §5, §6, §7

[11] = tested on: T5, Ab1 fibrils; test: as above; type: binding, human; conditions: 50:1 w/w plasma protein:fibril
Experimental: Plasma and CSF solutions were centrifuged (40,000 g, 20 min) to remove any aggregates. The protein concentration was determined using 280 nm absorbance assuming 1 Abs = 1 mg/mL. […] Control samples (without fibril material) were prepared similarly. All samples were incubated at room temperature for one hour under gentle agitation. Fibrils and fibril-bound proteins were pelleted by centrifugation at 17,000 g for 30 minutes. The supernatant (175 μL) was removed and the aggregate was re-suspended in 175 μL PBS and pelleted again before further preparation for gel analysis and spin-filter assisted digest for quantitative MS/MS.
as §2, §3, §4, §5, §6, §7

[12] = tested on: T2, FAS4-AD aggregates; test: as above; type: binding, human; set-up: key to Identification status of plasma protein bound: FAS4-AD: *: Identified, but not quantified; —: Not identified in any of the samples; conditions: for Identification status of plasma protein bound: FAS4-AD: symbol cells
Experimental: as §1, §2, §3, §4, §5, §6, §7

T1 sequence (P01275 53-81 limits assumed): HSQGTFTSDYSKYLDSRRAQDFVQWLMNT

B1: Ig α-1 chain C region: plasma/CSF protein bound to fibrils (protein, UniProt P01876 1-398, looked up)
Immunoglobulin heavy constant …: ASPTSPKVFPLSLCSTQPDGNVVIACLVQGFFPQEPLSVTWSESGQGVTARNFPPSQDASGDLYTTSSQLTLPATQCLAGKSVTCHVKHYTNPSQDVTVPCPVPSTPPTPSPSTPPTPSPSCCHPRLSLHRPALEDLLLGSEANLTCTLTGLRDASGVTFTWTPSSGKSAVQGPPERDLCGCYSVSSVLPGCAEPWNHGKTFTCTAAYPESKTPLTATLSKSGNTFRPEVHLLPPPSEELALNELVTLTCLARGFSPKDVLVRWLQGSQELPREKYLTWASRQEPSQGTTTFAVTSILRVAAEDWKKGDTFSCMVGHEALPLAFTQKTIDRLADWQMPPPYVVLDLPQETLEEETPGANLWPTTITFLTLFLLSLFYSTALTVTSVRGPSGNREGPQY
B1 was tested. Which “Relative composition of CSF proteins bound: Glucagon” value [1] did it give?
Its value is 0.2 ± 0.1 % of total protein.

What about the “Identification status of CSF protein bound: FAS4-AD” value [2] of the same molecule?
Its value is “—”.

What about the “Relative composition of CSF proteins bound: C-36” value [3] of the same molecule?
The value was 0.5 ± 0.1 % of total protein.

And the “Identification status of CSF protein bound: αSN” value [4]?
Its value is “—”.

And the “Identification status of CSF protein bound: Ab1” value [5]?
The value was “*”.

And the “Relative composition of plasma proteins bound: Ab2” value [6]?
The value was 1.3 ± 0.3 % of total protein.

What about the “Identification status of CSF protein bound: Ab2” value [7] of the same molecule?
Its value is “*”.

And the “Relative composition of plasma proteins bound: αSN” value ([8]; 50:1 w/w plasma protein:fibril)?
The value was 0.9 ± 0.3 % of total protein.

And the “Relative composition of plasma proteins bound: Glucagon” value [9]?
Its value is 1.7 ± 0.0 % of total protein.

What about the “Relative composition of plasma proteins bound: C-36” value [10] of the same molecule?
The value was 1.4 ± 0.4 % of total protein.

What about the “Relative composition of plasma proteins bound: Ab1” value [11] of the same molecule?
The value was 1.3 ± 0.1 % of total protein.

What about the “Relative composition of plasma proteins bound: FAS4-AD” value ([12]; 50:1 w/w plasma protein:fibril) of the same molecule?
The value was 3.9 ± 1.6 % of total protein.

B2: Inter-α-trypsin inhibitor heavy chain H2: plasma protein bound to fibrils (protein, UniProt P19823 55-702, looked up)
Inter-alpha-trypsin inhibitor …: SLPGESEEMMEEVDQVTLYSYKVQSTITSRMATTMIQSKVVNNSPQPQNVVFDVQIPKGAFISNFSMTVDGKTFRSSIKEKTVGRALYAQARAKGKTAGLVRSSALDMENFRTEVNVLPGAKVQFELHYQEVKWRKLGSYEHRIYLQPGRLAKHLEVDVWVIEPQGLRFLHVPDTFEGHFDGVPVISKGQQKAHVSFKPTVAQQRICPNCRETAVDGELVVLYDVKREEKAGELEVFNGYFVHFFAPDNLDPIPKNILFVIDVSGSMWGVKMKQTVEAMKTILDDLRAEDHFSVIDFNQNIRTWRNDLISATKTQVADAKRYIEKIQPSGGTNINEALLRAIFILNEANNLGLLDPNSVSLIILVSDGDPTVGELKLSKIQKNVKENIQDNISLFSLGMGFDVDYDFLKRLSNENHGIAQRIYGNQDTSSQLKKFYNQVSTPLLRNVQFNYPHTSVTDVTQNNFHNYFGGSEIVVAGKFDPAKLDQIESVITATSANTQLVLETLAQMDDLQDFLSKDKHADPDFTRKLWAYLTINQLLAERSLAPTAAAKRRITRSILQMSLDHHIVTPLTSLVIENEAGDERMLADAPPQDPSCCSGALYYGSKVVPDSTPSWANPSPTPVISMLAQGSQVLESTPPPHVMRVEND
What does the source list for B2?
Relative composition of plasma proteins bound: Ab2 [6]: 0.1 ± 0.0 % of total protein; Identification status of plasma protein bound: αSN [8]: *; Relative composition of plasma proteins bound: Glucagon [9]: 2.7 ± 0.2 % of total protein; Relative composition of plasma proteins bound: C-36 [10]: 0.3 ± 0.1 % of total protein; Relative composition of plasma proteins bound: Ab1 [11]: 0.1 ± 0.0 % of total protein; Identification status of plasma protein bound: FAS4-AD [12]: —

B3: Complement C1r subcomponent: plasma protein bound to fibrils (protein, UniProt P00736 18-705, looked up)
Complement C1r subcomponent: SIPIPQKLFGEVTSPLFPKPYPNNFETTTVITVPTGYRVKLVFQQFDLEPSEGCFYDYVKISADKKSLGRFCGQLGSPLGNPPGKKEFMSQGNKMLLTFHTDFSNEENGTIMFYKGFLAYYQAVDLDECASRSKSGEEDPQPQCQHLCHNYVGGYFCSCRPGYELQEDTHSCQAECSSELYTEASGYISSLEYPRSYPPDLRCNYSIRVERGLTLHLKFLEPFDIDDHQQVHCPYDQLQIYANGKNIGEFCGKQRPPDLDTSSNAVDLLFFTDESGDSRGWKLRYTTEIIKCPQPKTLDEFTIIQNLQPQYQFRDYFIATCKQGYQLIEGNQVLHSFTAVCQDDGTWHRAMPRCKIKDCGQPRNLPNGDFRYTTTMGVNTYKARIQYYCHEPYYKMQTRAGSRESEQGVYTCTAQGIWKNEQKGEKIPRCLPVCGKPVNPVEQRQRIIGGQKAKMGNFPWQVFTNIHGRGGGALLGDRWILTAAHTLYPKEHEAQSNASLDVFLGHTNVEELMKLGNHPIRRVSVHPDYRQDESYNFEGDIALLELENSVTLGPNLLPICLPDNDTFYDLGLMGYVSGFGVMEEKIAHDLRFVRLPVANPQACENWLRGKNRMDVFSQNMFCAGHPSLKQDACQGDSGGVFAVRDPNTDRWVATGIVSWGIGCSRGYGFYTKVLNYVDWIKKEMEEED
With B3 as the molecule, how does the “Relative composition of plasma proteins bound: Ab2” value [6] read?
The value was 0.4 ± 0.1 % of total protein.

And the “Identification status of plasma protein bound: αSN” value [8]?
The value was “*”.

And the “Relative composition of plasma proteins bound: Glucagon” value [9]?
Its value is 0.1 ± 0.0 % of total protein.

What about the “Relative composition of plasma proteins bound: C-36” value [10] of the same molecule?
Its value is 0.3 ± 0.1 % of total protein.

What about the “Relative composition of plasma proteins bound: Ab1” value [11] of the same molecule?
Its value is 0.2 ± 0.0 % of total protein.

And the “Identification status of plasma protein bound: FAS4-AD” value [12]?
The value was “—”.
